The target in the test is T1, TRIM21-His protein (UniProt P19474 1-475).
T1 construct: TRIM21-His protein, Sino Biological 18010-H07B; also called recombinant TRIM21; source: bought: Sino Biological (18010-H07B)
Description: pull-down; TRIM21-His incubated with GST-ID1 or GST at a 3:1 molar ratio in lysis buffer; captured with anti-GST antibody at 4 °C overnight, then Protein A/G beads 4 h; immunoblot. The following applies: both partners purified. On the technique in general: A western blot detects proteins with antibodies after separation by electrophoresis.

B1: GST-ID1 (natural protein, UniProt P41134 1-155, looked up)
chain: MKVASGSTATAAAGPSCALKAGKTASGAGEVVRCLSEQSVAISRCAGGAGARLPALLDEQQVNVLLYDMNGCYSRLKELVPTLPQNRKVSKVEILQHVIDYIRDLQLELNSESEVGTPGGRGLPVRAPLSTLNGEISALTAEAACVPADDRILCR
notes: also called recombinant ID1; source: cloned into pGEX-6p-2 with a GST tag and purified
Turning to B1, the binding result is given as “binds”.

(Values after paper PMC12462935, “TRIM21‐Mediated K11‐Linked Ubiquitination of ID1 Suppresses Tumorigenesis and Promotes Cuproptosis in Esophageal Squamous Cell Carcinoma” (Advanced Science, 2025).)
